What was measured:
[1] = target: membrane TCR belonging to the TRBV9 family on human peripheral blood T lymphocytes (human); experiment: flow cytometry sorting of donor T lymphocytes with FITC-labelled MA-043 (100 ng/ml), then sequencing of TCR beta chains of the sorted cells
[2] = target: human antigen (TRBV9 family beta-chain of the human T cell receptor), immobilized on AR2G sensors (human); experiment: BLI, OctetRed 96, antigen immobilized on AR2G sensors, antibody in solution, 1:1 global model

Sequence of membrane TCR belonging to the TRBV9 family on human peripheral blood T lymphocytes (human) (A0A0B4J1U6 22-114): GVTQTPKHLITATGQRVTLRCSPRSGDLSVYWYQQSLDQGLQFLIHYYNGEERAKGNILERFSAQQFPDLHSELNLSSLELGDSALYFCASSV

- enrichment of the sorted library with sequences encoded by the TRBV9 gene segment [1]: 91%
- Kd [2]: < 1 pM
- koff [2]: < 1e-07 s⁻¹
- kon [2]: 329000 M⁻¹ s⁻¹
B1: monoclonal antibody MA-043 (antibody, V domains shown)
VH: QVQLVQSGPELKKPGESVKVSCKASGYTFTDYLVHWVRQAPGKGLEWMGWINTYTGTPTYADDFEGRFVFSLDTSASTANLQICSLKNEDTATYYCARSWRRGLRGIGFDYWGQGTLVTVSS
VL: DIQMTQSPYSLSASVGDRVTITCKASKSINKYLAWFQQKPGKPNKLLIYDGSTLQSGVPSRFSGSGSGTDFTLTISSLEPEDFATYYCQQHNEYPPTFGQGTKLEIKR
